Test results from patent US20230272029A1, “CO-AGONISTS AT GLP-1 AND GIP RECEPTORS SUITABLE FOR ORAL DELIVERY” (Novo Nordisk A/S, priority 2020, published 2023).
Starred links: 1 amine or outer side, 2 acyl side, 3 side chain; linkers in the order of their positions; H or OH if unused. Non-standard residues stand in square brackets, D forms with d. Groups on a side chain read outwards from the residue. No end group written: not given here. *: point of attachment. C18 diacid = O=C(O)CCCCCCCCCCCCCCCCC(=O)*; γGlu = O=C(O)[C@H](CCC(=O)[*:2])N[*:1]; εLys = N[C@@H](CCCCN[*:1])C(=O)[*:2]; AEEA = NCCOCCOCC(=O)O; Aib = CC(C)(N)C(=O)O

T1: human GIP receptor (human, UniProt P48546 22-466)
T1 sequence (looked up): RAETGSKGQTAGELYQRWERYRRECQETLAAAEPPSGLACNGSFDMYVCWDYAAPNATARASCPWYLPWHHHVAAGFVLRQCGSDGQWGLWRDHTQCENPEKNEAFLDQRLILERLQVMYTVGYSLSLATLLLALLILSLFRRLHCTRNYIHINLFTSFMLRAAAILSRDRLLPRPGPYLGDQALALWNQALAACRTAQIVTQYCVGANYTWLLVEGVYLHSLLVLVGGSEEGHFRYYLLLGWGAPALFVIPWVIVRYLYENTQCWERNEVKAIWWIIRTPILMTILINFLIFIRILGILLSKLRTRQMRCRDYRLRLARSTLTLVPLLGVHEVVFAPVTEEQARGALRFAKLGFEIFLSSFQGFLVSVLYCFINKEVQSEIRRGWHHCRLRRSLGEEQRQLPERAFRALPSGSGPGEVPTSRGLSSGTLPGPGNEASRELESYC


How the values were obtained:
human GIP receptor = target: T1, human GIP receptor; assay: cell-based or functional assay
human GLP-1 receptor = human GLP-1 receptor (human, UniProt P43220 24-463); assay: cell-based or functional assay

Binder | hGIPR, CRE Luc 0% HSA EC50 (pM) (human GIP receptor) | hGIPR, CRE Luc 1% HSA EC50 (pM) (human GIP receptor) | hGLP-1R, CRE Luc 0% HSA EC50 (pM) (human GLP-1 receptor) | hGLP-1R, CRE Luc 1% HSA EC50 (pM) (human GLP-1 receptor)
Y[Aib]EGTFTSDYSIYLEEQAAREFINWLLAGGPSK([εLys-εLys-γGlu-C18 diacid])GAPPPS-OH (N-terminus assumed; SMILES CC[C@H](C)[C@H](NC(=O)[C@H](Cc1ccccc1)NC(=O)[C@H](CCC(=O)O)NC(=O)[C@H](CCCNC(=N)N)NC(=O)[C@H](C)NC(=O)[C@H](C)NC(=O)[C@H](CCC(N)=O)NC(=O)[C@H](CCC(=O)O)NC(=O)[C@H](CCC(=O)O)NC(=O)[C@H](CC(C)C)NC(=O)[C@H](Cc1ccc(O)cc1)NC(=O)[C@@H](NC(=O)[C@H](CO)NC(=O)[C@H](Cc1ccc(O)cc1)NC(=O)[C@H](CC(=O)O)NC(=O)[C@H](CO)NC(=O)[C@@H](NC(=O)[C@H](Cc1ccccc1)NC(=O)[C@@H](NC(=O)CNC(=O)[C@H](CCC(=O)O)NC(=O)C(C)(C)NC(=O)[C@@H](N)Cc1ccc(O)cc1)[C@@H](C)O)[C@@H](C)O)[C@@H](C)CC)C(=O)N[C@@H](CC(N)=O)C(=O)N[C@@H](Cc1c[nH]c2ccccc12)C(=O)N[C@@H](CC(C)C)C(=O)N[C@@H](CC(C)C)C(=O)N[C@@H](C)C(=O)NCC(=O)NCC(=O)N1CCC[C@H]1C(=O)N[C@@H](CO)C(=O)N[C@@H](CCCCNC(=O)[C@@H](N)CCCCNC(=O)[C@@H](N)CCCCNC(=O)CC[C@H](NC(=O)CCCCCCCCCCCCCCCCC(=O)O)C(=O)O)C(=O)NCC(=O)N[C@@H](C)C(=O)N1CCC[C@H]1C(=O)N1CCC[C@H]1C(=O)N1CCC[C@H]1C(=O)N[C@@H](CO)C(=O)O) [Compound No. 42] | 5.9 pM | 306 pM | 2.3 pM | 83.5 pM
Y[Aib]EGTFTSDYSILLEK([εLys-εLys-γGlu-C18 diacid])QAAREFIEWLLAGGPSSGAPPPS-OH (N-terminus assumed; SMILES CC[C@H](C)[C@H](NC(=O)[C@H](Cc1ccccc1)NC(=O)[C@H](CCC(=O)O)NC(=O)[C@H](CCCNC(=N)N)NC(=O)[C@H](C)NC(=O)[C@H](C)NC(=O)[C@H](CCC(N)=O)NC(=O)[C@H](CCCCNC(=O)[C@@H](N)CCCCNC(=O)[C@@H](N)CCCCNC(=O)CC[C@H](NC(=O)CCCCCCCCCCCCCCCCC(=O)O)C(=O)O)NC(=O)[C@H](CCC(=O)O)NC(=O)[C@H](CC(C)C)NC(=O)[C@H](CC(C)C)NC(=O)[C@@H](NC(=O)[C@H](CO)NC(=O)[C@H](Cc1ccc(O)cc1)NC(=O)[C@H](CC(=O)O)NC(=O)[C@H](CO)NC(=O)[C@@H](NC(=O)[C@H](Cc1ccccc1)NC(=O)[C@@H](NC(=O)CNC(=O)[C@H](CCC(=O)O)NC(=O)C(C)(C)NC(=O)[C@@H](N)Cc1ccc(O)cc1)[C@@H](C)O)[C@@H](C)O)[C@@H](C)CC)C(=O)N[C@@H](CCC(=O)O)C(=O)N[C@@H](Cc1c[nH]c2ccccc12)C(=O)N[C@@H](CC(C)C)C(=O)N[C@@H](CC(C)C)C(=O)N[C@@H](C)C(=O)NCC(=O)NCC(=O)N1CCC[C@H]1C(=O)N[C@@H](CO)C(=O)N[C@@H](CO)C(=O)NCC(=O)N[C@@H](C)C(=O)N1CCC[C@H]1C(=O)N1CCC[C@H]1C(=O)N1CCC[C@H]1C(=O)N[C@@H](CO)C(=O)O) [Compound No. 31] | 4.7 pM | 188 pM | 4.2 pM | 202 pM
Y[Aib]EGTFTSDYSILLEK([AEEA-AEEA-γGlu-C18 diacid])QAAREFIEWLLAGGPSSGAPPPS-OH (N-terminus assumed; SMILES CC[C@H](C)[C@H](NC(=O)[C@H](Cc1ccccc1)NC(=O)[C@H](CCC(=O)O)NC(=O)[C@H](CCCNC(=N)N)NC(=O)[C@H](C)NC(=O)[C@H](C)NC(=O)[C@H](CCC(N)=O)NC(=O)[C@H](CCCCNC(=O)COCCOCCNC(=O)COCCOCCNC(=O)CC[C@H](NC(=O)CCCCCCCCCCCCCCCCC(=O)O)C(=O)O)NC(=O)[C@H](CCC(=O)O)NC(=O)[C@H](CC(C)C)NC(=O)[C@H](CC(C)C)NC(=O)[C@@H](NC(=O)[C@H](CO)NC(=O)[C@H](Cc1ccc(O)cc1)NC(=O)[C@H](CC(=O)O)NC(=O)[C@H](CO)NC(=O)[C@@H](NC(=O)[C@H](Cc1ccccc1)NC(=O)[C@@H](NC(=O)CNC(=O)[C@H](CCC(=O)O)NC(=O)C(C)(C)NC(=O)[C@@H](N)Cc1ccc(O)cc1)[C@@H](C)O)[C@@H](C)O)[C@@H](C)CC)C(=O)N[C@@H](CCC(=O)O)C(=O)N[C@@H](Cc1c[nH]c2ccccc12)C(=O)N[C@@H](CC(C)C)C(=O)N[C@@H](CC(C)C)C(=O)N[C@@H](C)C(=O)NCC(=O)NCC(=O)N1CCC[C@H]1C(=O)N[C@@H](CO)C(=O)N[C@@H](CO)C(=O)NCC(=O)N[C@@H](C)C(=O)N1CCC[C@H]1C(=O)N1CCC[C@H]1C(=O)N1CCC[C@H]1C(=O)N[C@@H](CO)C(=O)O) [Compound No. 32] | 7.1 pM | 679 pM | 5 pM | 982 pM
Y[Aib]EGTFTSDYSK([εLys-εLys-γGlu-C18 diacid])LLEEQAAREFIEWLLAGGPSSGAPPPS-OH (N-terminus assumed; SMILES CC[C@H](C)[C@H](NC(=O)[C@H](Cc1ccccc1)NC(=O)[C@H](CCC(=O)O)NC(=O)[C@H](CCCNC(=N)N)NC(=O)[C@H](C)NC(=O)[C@H](C)NC(=O)[C@H](CCC(N)=O)NC(=O)[C@H](CCC(=O)O)NC(=O)[C@H](CCC(=O)O)NC(=O)[C@H](CC(C)C)NC(=O)[C@H](CC(C)C)NC(=O)[C@H](CCCCNC(=O)[C@@H](N)CCCCNC(=O)[C@@H](N)CCCCNC(=O)CC[C@H](NC(=O)CCCCCCCCCCCCCCCCC(=O)O)C(=O)O)NC(=O)[C@H](CO)NC(=O)[C@H](Cc1ccc(O)cc1)NC(=O)[C@H](CC(=O)O)NC(=O)[C@H](CO)NC(=O)[C@@H](NC(=O)[C@H](Cc1ccccc1)NC(=O)[C@@H](NC(=O)CNC(=O)[C@H](CCC(=O)O)NC(=O)C(C)(C)NC(=O)[C@@H](N)Cc1ccc(O)cc1)[C@@H](C)O)[C@@H](C)O)C(=O)N[C@@H](CCC(=O)O)C(=O)N[C@@H](Cc1c[nH]c2ccccc12)C(=O)N[C@@H](CC(C)C)C(=O)N[C@@H](CC(C)C)C(=O)N[C@@H](C)C(=O)NCC(=O)NCC(=O)N1CCC[C@H]1C(=O)N[C@@H](CO)C(=O)N[C@@H](CO)C(=O)NCC(=O)N[C@@H](C)C(=O)N1CCC[C@H]1C(=O)N1CCC[C@H]1C(=O)N1CCC[C@H]1C(=O)N[C@@H](CO)C(=O)O) [Compound No. 40] | 9.5 pM | 501 pM | 6.4 pM | 334 pM
Y[Aib]EGTFTSDYSILLEK([εLys-εLys-γGlu-C18 diacid])QAAHEFIEWLLAGGPSSGAPPPS-OH (N-terminus assumed; SMILES CC[C@H](C)[C@H](NC(=O)[C@H](Cc1ccccc1)NC(=O)[C@H](CCC(=O)O)NC(=O)[C@H](Cc1c[nH]cn1)NC(=O)[C@H](C)NC(=O)[C@H](C)NC(=O)[C@H](CCC(N)=O)NC(=O)[C@H](CCCCNC(=O)[C@@H](N)CCCCNC(=O)[C@@H](N)CCCCNC(=O)CC[C@H](NC(=O)CCCCCCCCCCCCCCCCC(=O)O)C(=O)O)NC(=O)[C@H](CCC(=O)O)NC(=O)[C@H](CC(C)C)NC(=O)[C@H](CC(C)C)NC(=O)[C@@H](NC(=O)[C@H](CO)NC(=O)[C@H](Cc1ccc(O)cc1)NC(=O)[C@H](CC(=O)O)NC(=O)[C@H](CO)NC(=O)[C@@H](NC(=O)[C@H](Cc1ccccc1)NC(=O)[C@@H](NC(=O)CNC(=O)[C@H](CCC(=O)O)NC(=O)C(C)(C)NC(=O)[C@@H](N)Cc1ccc(O)cc1)[C@@H](C)O)[C@@H](C)O)[C@@H](C)CC)C(=O)N[C@@H](CCC(=O)O)C(=O)N[C@@H](Cc1c[nH]c2ccccc12)C(=O)N[C@@H](CC(C)C)C(=O)N[C@@H](CC(C)C)C(=O)N[C@@H](C)C(=O)NCC(=O)NCC(=O)N1CCC[C@H]1C(=O)N[C@@H](CO)C(=O)N[C@@H](CO)C(=O)NCC(=O)N[C@@H](C)C(=O)N1CCC[C@H]1C(=O)N1CCC[C@H]1C(=O)N1CCC[C@H]1C(=O)N[C@@H](CO)C(=O)O) [Compound No. 30] | 3.2 pM | 185 pM | 7.3 pM | 268 pM
Y[Aib]EGTFTSDYSK([εLys-εLys-γGlu-C18 diacid])YLEEQAAREFINWLLAGGPSSGAPPPS-OH (N-terminus assumed; SMILES CC[C@H](C)[C@H](NC(=O)[C@H](Cc1ccccc1)NC(=O)[C@H](CCC(=O)O)NC(=O)[C@H](CCCNC(=N)N)NC(=O)[C@H](C)NC(=O)[C@H](C)NC(=O)[C@H](CCC(N)=O)NC(=O)[C@H](CCC(=O)O)NC(=O)[C@H](CCC(=O)O)NC(=O)[C@H](CC(C)C)NC(=O)[C@H](Cc1ccc(O)cc1)NC(=O)[C@H](CCCCNC(=O)[C@@H](N)CCCCNC(=O)[C@@H](N)CCCCNC(=O)CC[C@H](NC(=O)CCCCCCCCCCCCCCCCC(=O)O)C(=O)O)NC(=O)[C@H](CO)NC(=O)[C@H](Cc1ccc(O)cc1)NC(=O)[C@H](CC(=O)O)NC(=O)[C@H](CO)NC(=O)[C@@H](NC(=O)[C@H](Cc1ccccc1)NC(=O)[C@@H](NC(=O)CNC(=O)[C@H](CCC(=O)O)NC(=O)C(C)(C)NC(=O)[C@@H](N)Cc1ccc(O)cc1)[C@@H](C)O)[C@@H](C)O)C(=O)N[C@@H](CC(N)=O)C(=O)N[C@@H](Cc1c[nH]c2ccccc12)C(=O)N[C@@H](CC(C)C)C(=O)N[C@@H](CC(C)C)C(=O)N[C@@H](C)C(=O)NCC(=O)NCC(=O)N1CCC[C@H]1C(=O)N[C@@H](CO)C(=O)N[C@@H](CO)C(=O)NCC(=O)N[C@@H](C)C(=O)N1CCC[C@H]1C(=O)N1CCC[C@H]1C(=O)N1CCC[C@H]1C(=O)N[C@@H](CO)C(=O)O) [Compound No. 41] | 4.9 pM | 79.3 pM | 1.2 pM | 31.4 pM
